Results reported in the supplement of paper PMC9732359.
± gives the uncertainty stated by the source.

Experiment: protein stability index of a GFP-peptide fusion (yeast GPS) (PSI 1-4); higher = more stable; sorted into four equal gates, so the index is relative within each strain
In short: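 For each peptide, the protein stability index sums the read frequency in every gate after multiplying it by the gate number. Read frequencies came from plasmids that were PCR-amplified from each gate and Illumina-sequenced, with reads assigned to strains by barcodes. The gates were four equal bins of GFP/Cherry fluorescence ratio applied to mid-log yeast in leucine-free medium carrying a pooled library of tiled 17-residue yeast protein peptides fused downstream of GFP on a Cherry-expressing plasmid.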

Sequence | protein stability index (doa10∆) | protein stability index (pdr5∆) | protein stability index (san1∆) | protein stability index (ubr1∆)
SGNEMPPQDAEGWFYKR [RPS19A] | 3.21 ± 0.13 | 3.29 ± 0.24 | 3.25 ± 0.13 | 3.17 ± 0.12
SGNLPLNELSAKDKEIY [RPN13] | 3.21 ± 0.074 | 3.32 ± 0.083 | 3.27 ± 0.044 | 3.19 ± 0.067
SGQLNFEIDGDVIHFED [PCI8] | 2.94 ± 0.091 | 2.83 ± 0.067 | 2.53 ± 0.075 | 2.83 ± 0.043
SGTPTLKKNIEPKKDKE [YOR098C/NUP1] | 3.39 ± 0.19 | 3.29 ± 0.11 | 2.71 ± 0.25 | 3.05 ± 0.084
SGVKNDILQSLSGGGHD [CDC53] | 3.09 ± 0.075 | 3.09 ± 0.077 | 2.71 ± 0.068 | 2.8 ± 0.048
SGWGAVVYIIKKDEVVK [PUP3] | 3.25 ± 0.088 | 2.96 ± 0.072 | 3.33 ± 0.052 | 3.27 ± 0.057
SHFDYNTLEFIIEQLSI [YCG1] | 2.48 ± 0.078 | 2.62 ± 0.12 | 2.18 ± 0.14 | 2.37 ± 0.086
SHIESDSTSHNNGSSDK [MED1] | 2.89 ± 0.042 | 2.94 ± 0.038 | 2.84 ± 0.042 | 3.01 ± 0.032
SHLVVPYCPIASITGTG [YMR129W/POM152] | 1.36 ± 0.065 | 1.37 ± 0.066 | 1.33 ± 0.1 | 1.36 ± 0.03
SHLYKARLDGHDFLFNT [RPN14] | 3.37 ± 0.13 | 2.88 ± 0.076 | 3.13 ± 0.07 | 2.85 ± 0.047
SHTSLVKIGKFIPHGLK [SRB8] | 1.71 ± 0.053 | 1.73 ± 0.045 | 1.97 ± 0.084 | 1.55 ± 0.054
SIAEEIPIAIVLKACGI [RET1] | 1.61 ± 0.056 | 1.49 ± 0.049 | 1.31 ± 0.089 | 1.66 ± 0.049
SIDDHPYNLNLFPNELY [RPC31] | 2.14 ± 0.048 | 2.53 ± 0.061 | 2.69 ± 0.088 | 2.68 ± 0.064
SIDFRTYRCSIKNLPAD [SRB2] | 2.32 ± 0.074 | 2.56 ± 0.079 | 2.19 ± 0.07 | 2.27 ± 0.067
SIGRTAQGKEFGVTKAR [RPL17A] | 3.28 ± 0.14 | 3.44 ± 0.12 | 3.05 ± 0.096 | –
SIMPDLYFYRDPEEVEQ [RPS0A] | 2.86 ± 0.082 | 2.95 ± 0.077 | 2.94 ± 0.063 | 2.85 ± 0.06
SINKNNKEMHTDLGKDI [SSN2] | – | 2.07 ± 0.22 | 3.21 ± 0.12 | 3.48 ± 0.14
SINVHSNNITSGLNRAI [RET1] | 3.19 ± 0.1 | 3.24 ± 0.07 | 3.24 ± 0.052 | 3.17 ± 0.052
SIRAEAVAASSTKTGTP [POP1] | 3.48 ± 0.15 | 3.21 ± 0.1 | 3.08 ± 0.077 | 2.9 ± 0.069
SKATGAPSANQGDEALS [RTT102] | 3.28 ± 0.12 | 3.32 ± 0.1 | 3.13 ± 0.1 | 3.14 ± 0.24
SKDLRSVWKPIAAIIGR [IRR1] | 2.56 ± 0.06 | 2.15 ± 0.032 | 2.75 ± 0.049 | 2.58 ± 0.038
SKEWFQLDDEDFDLLNK [FAS1] | 3.03 ± 0.11 | 3.31 ± 0.1 | 3.28 ± 0.084 | 3.06 ± 0.08
SKKSTITVRYWLNGKMD [RGR1] | – | – | 2.28 ± 0.2 | –
SKLSLSRTDAVRCKDCG [RPC10] | 1.77 ± 0.076 | 1.9 ± 0.064 | 1.85 ± 0.13 | 1.9 ± 0.076
SKMGAPWCVKPEYLAMY [ITC1] | 2.92 ± 0.057 | 3.23 ± 0.048 | 3.1 ± 0.043 | 3.11 ± 0.058

Sequence | protein stability index (doa10∆) | protein stability index (pdr5∆) | protein stability index (san1∆) | protein stability index (ubr1∆)
SKPSTASPSAHTSSSDG [RPN4] | 2.71 ± 0.064 | 3.04 ± 0.064 | 2.66 ± 0.05 | 2.92 ± 0.045
SKQLSLEEKKKRPNNKT [IRR1] | 2.5 ± 0.11 | 2.59 ± 0.094 | 2.21 ± 0.15 | 2.79 ± 0.096
SKSAPSKKISNTAAALV [YAR002W/NUP60] | 3.1 ± 0.067 | 2.97 ± 0.068 | 3.12 ± 0.041 | 3.14 ± 0.048
SKSENPVLSTIAFLVGL [SWI3] | 3.01 ± 0.11 | 2.54 ± 0.085 | 2.26 ± 0.1 | 2.43 ± 0.057
SKTHKTVSRAYGGSRCA [RPL34A] | 2.68 ± 0.071 | 2.91 ± 0.054 | 2.82 ± 0.064 | 2.85 ± 0.048
SKVVDDMPSLRLIDLSG [GRR1] | 2.8 ± 0.076 | 2.91 ± 0.081 | 2.72 ± 0.056 | 2.71 ± 0.078
SKYYPGVIIKVEESGEH [SNU114] | 1.96 ± 0.061 | 2.08 ± 0.077 | 2.28 ± 0.08 | 2.42 ± 0.073
SLCTVWKPNPSYDVENV [SRB5] | 2.47 ± 0.097 | 2.03 ± 0.098 | 2.08 ± 0.19 | 1.84 ± 0.082
SLDTSASTINGASIIQV [YML103C/NUP188] | 1.19 ± 0.081 | 1.44 ± 0.086 | 1.29 ± 0.12 | 1.14 ± 0.093
SLEGCVEMAWIMGFISY [FAS2] | 1.97 ± 0.084 | 1.86 ± 0.061 | 2.35 ± 0.086 | 2.27 ± 0.078
SLEMVPKDTSAATMTSA [RGR1] | 2.47 ± 0.11 | 2.77 ± 0.12 | 2.73 ± 0.088 | 2.93 ± 0.088
SLFQLSKLGKNLQTVHF [GRR1] | 2.2 ± 0.047 | 2.22 ± 0.051 | 1.96 ± 0.06 | 2.43 ± 0.038
SLGIRPCLRKYEEFRDV [RRP43] | 3.27 ± 0.19 | – | 3.21 ± 0.18 | 2.96 ± 0.076
SLKKVDEIKAQRKEIKD [SMC4] | – | 2.94 ± 0.18 | 3.29 ± 0.16 | 3.4 ± 0.25
SLLAMHKHNIMKNENAN [CDC53] | 2.2 ± 0.064 | 2.58 ± 0.066 | 2.82 ± 0.072 | 3.05 ± 0.046
SLLERHIPRLIPKQLLD [YJL039C/NUP192] | 2.11 ± 0.096 | 1.38 ± 0.071 | 1.23 ± 0.095 | 1.45 ± 0.076
SLLSLVGHLSILPQQSK [ECM29] | 2.21 ± 0.048 | 2 ± 0.052 | 1.94 ± 0.058 | 1.64 ± 0.027
SLQDLIYKRGQAGVTKA [SMC2] | 1.58 ± 0.15 | 1.94 ± 0.094 | 1.85 ± 0.15 | 2.3 ± 0.079
SLQDSIIKQENFNSVND [SSN2] | 2.4 ± 0.11 | 1.83 ± 0.073 | 2.48 ± 0.078 | 2.73 ± 0.098
SLQSSSQTQLENANAAN [MED2] | 1.96 ± 0.075 | 2.6 ± 0.056 | 2.64 ± 0.091 | 1.33 ± 0.035
SLSVVAGKWSSKYLIKQ [ECM29] | – | 2.19 ± 0.18 | 2.15 ± 0.17 | 2.39 ± 0.095
SLTDVAFFTYDAGVTFN [ECM29] | 2.66 ± 0.065 | 2.34 ± 0.057 | 2.82 ± 0.063 | 2.6 ± 0.068
SLTRDFEQCCKEKKELQ [YIL149C/MLP2] | 2.87 ± 0.089 | 3.01 ± 0.089 | 3 ± 0.1 | 3.14 ± 0.11
SLTSKRLISQSLLASKS [RIP1] | – | – | – | 1.36 ± 0.21
